Results reported in patent US20260078175A1 (Boehringer Ingelheim, published 2026).

Legend:
[1] = target: T1, Human semaphorin 3A (Sema3A) (human, UniProt Q14563 21-771); assay: SPR (GLM sensorchip), antibody captured on Human Fab Binder, Sema3A as analyte, 1:1 Langmuir fit
T1 construct: also called human Sema3A; HuSema3A
T1 sequence: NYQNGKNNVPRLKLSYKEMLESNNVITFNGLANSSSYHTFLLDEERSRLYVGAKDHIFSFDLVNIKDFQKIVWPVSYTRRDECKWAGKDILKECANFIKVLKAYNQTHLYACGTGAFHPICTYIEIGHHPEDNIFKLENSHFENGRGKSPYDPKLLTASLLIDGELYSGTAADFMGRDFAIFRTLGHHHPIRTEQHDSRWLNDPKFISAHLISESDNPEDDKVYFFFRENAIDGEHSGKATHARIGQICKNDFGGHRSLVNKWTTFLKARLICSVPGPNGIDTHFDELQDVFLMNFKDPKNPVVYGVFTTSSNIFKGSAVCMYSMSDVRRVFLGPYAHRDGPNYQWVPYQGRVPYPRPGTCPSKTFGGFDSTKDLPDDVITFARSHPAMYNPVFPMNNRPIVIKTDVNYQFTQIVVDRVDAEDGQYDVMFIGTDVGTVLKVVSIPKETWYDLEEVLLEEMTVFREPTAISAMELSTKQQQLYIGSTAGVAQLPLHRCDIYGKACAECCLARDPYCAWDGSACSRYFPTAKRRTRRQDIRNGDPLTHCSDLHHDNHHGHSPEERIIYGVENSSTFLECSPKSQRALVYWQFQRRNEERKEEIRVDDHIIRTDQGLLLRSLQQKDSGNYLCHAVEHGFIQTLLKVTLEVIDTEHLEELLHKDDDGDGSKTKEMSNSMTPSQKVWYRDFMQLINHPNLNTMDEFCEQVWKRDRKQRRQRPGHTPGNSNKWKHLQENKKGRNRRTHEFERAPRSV
Description: (§1) The running buffer for this experiment and all dilutions (except where stated) were done in PBS-T-EDTA with 0.01% Tween20 [100 ul of 100% Tween20 was added to 2L of PBS-T-EDTA to make final Tween 20 concentration of 0.01%]. The GLM sensorchip was normalized and pre-conditioned as per the manufacturer's recommendations. The sensorchip was activated with equal mixture of EDC/s-NHS in the horizontal direction for 300 sec at a flow rate of 30 μl/min and immobilized with Human Fab Binder (10 μg/ml in 10 mM acetate pH 5.0) in the horizontal direction for 300 sec at a flowrate of 30 μl/min resulting in ˜6739-7414 RU of Human Fab Binder on the surface. The sensorchip was deactivated with 1M ethanolamine HCl in the horizontal direction for 300 sec at a flowrate of 30 μl/min. The sensorchip was stabilized with 18 sec of 10 mM glycine, pH 2.1 at a flowrate of 100 μl/min 1 time horizontally and 1 time vertically.
(§2) The inventors tested an exemplary antibody according to the invention (clone I). Said antibody (0.5 μg/ml) was captured on the Human Fab Binder surface vertically for 300 sec at a flowrate of 25 μl/min resulting ˜180 RU capture level. The baseline was stabilized by injecting PBS-T-EDTA for 60 sec at a flowrate of 40 μl/min horizontally. The analyte was injected horizontally over the captured antibody for 600 sec at a flowrate of 40 μl/min and a dissociation for 7200 sec. The concentrations of the analytes were 0 nM, 0.625 nM, 1.25 nM, 2.5 nM, 5 nM, and 10 nM. The surface was regenerated by injecting 10 mM glycine, pH 2.1 for 18 sec at a flowrate of 100 μl/min one time horizontally and one time vertically. PBS-T-EDTA was injected for 60 sec at a flowrate of 25 μl/min one time vertically.
(§3) The interspot (interactions with sensor surface) and blank (PBS-T-EDTA with 0.01% Tween20 or 0 nM analyte) were subtracted from the raw data.

Rabbit Sema3A [2] = target: T2, Rabbit Sema3A (rabbit, UniProt G1T285 21-770); assay: as above
T2 construct: Construct not described
T2 sequence: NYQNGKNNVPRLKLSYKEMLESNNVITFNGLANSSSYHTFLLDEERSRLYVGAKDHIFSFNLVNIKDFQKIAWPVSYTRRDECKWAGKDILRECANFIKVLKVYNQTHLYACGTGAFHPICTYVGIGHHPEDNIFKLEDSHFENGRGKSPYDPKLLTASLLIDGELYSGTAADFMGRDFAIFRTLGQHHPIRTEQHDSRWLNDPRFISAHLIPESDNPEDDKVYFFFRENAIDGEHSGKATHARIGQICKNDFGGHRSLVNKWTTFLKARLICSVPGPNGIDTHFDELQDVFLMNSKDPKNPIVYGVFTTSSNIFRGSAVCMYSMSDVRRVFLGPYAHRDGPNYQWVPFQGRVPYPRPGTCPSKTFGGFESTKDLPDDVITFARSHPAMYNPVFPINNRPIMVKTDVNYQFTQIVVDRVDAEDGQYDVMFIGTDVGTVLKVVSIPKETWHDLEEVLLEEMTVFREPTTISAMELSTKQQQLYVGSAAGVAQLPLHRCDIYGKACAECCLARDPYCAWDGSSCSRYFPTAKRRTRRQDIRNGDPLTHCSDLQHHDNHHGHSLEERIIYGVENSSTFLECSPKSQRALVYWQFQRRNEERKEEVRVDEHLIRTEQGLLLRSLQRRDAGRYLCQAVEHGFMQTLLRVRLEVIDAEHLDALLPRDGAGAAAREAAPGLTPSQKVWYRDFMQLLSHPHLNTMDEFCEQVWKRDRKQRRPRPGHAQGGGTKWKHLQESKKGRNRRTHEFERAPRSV
Description: as §1, §2, §3

Mouse Sema3A [3] = target: T3, Mouse Sema3A (mouse, UniProt O08665 21-772, limits assumed); assay: as above
T3 construct: Construct not described
T3 sequence (looked up): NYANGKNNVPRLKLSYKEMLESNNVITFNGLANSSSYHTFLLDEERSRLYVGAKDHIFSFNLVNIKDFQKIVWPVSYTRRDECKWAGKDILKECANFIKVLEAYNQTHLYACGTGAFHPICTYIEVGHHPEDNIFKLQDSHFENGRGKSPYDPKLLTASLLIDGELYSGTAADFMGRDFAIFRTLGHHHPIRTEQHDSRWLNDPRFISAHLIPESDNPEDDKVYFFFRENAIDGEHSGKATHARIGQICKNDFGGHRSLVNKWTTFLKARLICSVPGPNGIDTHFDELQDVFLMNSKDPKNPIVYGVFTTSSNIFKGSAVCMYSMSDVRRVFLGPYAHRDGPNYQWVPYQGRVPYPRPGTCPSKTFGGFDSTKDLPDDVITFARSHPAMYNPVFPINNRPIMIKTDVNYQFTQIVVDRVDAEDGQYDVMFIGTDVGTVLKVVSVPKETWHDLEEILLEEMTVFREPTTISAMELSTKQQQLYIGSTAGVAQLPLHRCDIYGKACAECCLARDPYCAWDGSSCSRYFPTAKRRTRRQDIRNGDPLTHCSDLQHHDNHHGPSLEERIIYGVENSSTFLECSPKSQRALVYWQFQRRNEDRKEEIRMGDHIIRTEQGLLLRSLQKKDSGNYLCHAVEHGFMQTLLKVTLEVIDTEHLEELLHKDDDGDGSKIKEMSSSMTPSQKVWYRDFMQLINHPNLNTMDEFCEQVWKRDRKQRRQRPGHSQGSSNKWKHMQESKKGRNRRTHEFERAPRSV
Description: as §1, §2, §3

Rat Sema3A [4] = target: T4, Rat Sema3A (rat, UniProt Q63548 21-772, limits assumed); assay: as above
T4 construct: Construct not described
T4 sequence (looked up): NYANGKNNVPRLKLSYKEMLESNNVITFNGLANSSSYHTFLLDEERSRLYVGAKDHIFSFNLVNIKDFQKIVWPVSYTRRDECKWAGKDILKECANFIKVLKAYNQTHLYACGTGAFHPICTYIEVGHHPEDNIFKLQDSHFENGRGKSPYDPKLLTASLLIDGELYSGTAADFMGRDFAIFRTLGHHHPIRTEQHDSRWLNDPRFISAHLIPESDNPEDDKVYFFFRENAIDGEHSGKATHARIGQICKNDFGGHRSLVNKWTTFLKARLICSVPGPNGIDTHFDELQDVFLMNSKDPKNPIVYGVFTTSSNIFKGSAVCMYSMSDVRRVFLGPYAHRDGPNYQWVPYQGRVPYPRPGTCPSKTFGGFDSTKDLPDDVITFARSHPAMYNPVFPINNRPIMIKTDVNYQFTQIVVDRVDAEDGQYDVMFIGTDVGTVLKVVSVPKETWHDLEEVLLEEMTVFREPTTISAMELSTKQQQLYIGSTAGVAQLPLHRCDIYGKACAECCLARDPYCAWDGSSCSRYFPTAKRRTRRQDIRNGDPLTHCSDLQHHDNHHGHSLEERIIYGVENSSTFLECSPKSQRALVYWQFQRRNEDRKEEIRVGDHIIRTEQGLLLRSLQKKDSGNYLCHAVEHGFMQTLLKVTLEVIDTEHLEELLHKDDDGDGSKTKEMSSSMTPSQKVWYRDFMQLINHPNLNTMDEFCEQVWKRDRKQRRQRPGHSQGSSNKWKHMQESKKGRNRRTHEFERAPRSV
Description: as §1, §2, §3

[5] = target: T1, Human semaphorin 3A (Sema3A); assay: SPR (BioRad GLM chip), antibody captured on goat anti-human IgG, Sema3A as analyte, 1:1 Langmuir fit
Rabbit Sema3A [6] = target: T2, Rabbit Sema3A; assay: as above
Mouse Sema3A [7] = target: T3, Mouse Sema3A; assay: as above
Rat Sema3A [8] = target: T4, Rat Sema3A; assay: as above
[9] = target: Cynomolgus Sema3A (cynomolgus); assay: SPR (GLM sensorchip), antibody captured on Human Fab Binder, Sema3A as analyte, 1:1 Langmuir fit
[10] = target: T1, Human semaphorin 3A (Sema3A); assay: SPR (BioRad GLM chip), antibody captured on anti-human Fab antibody, human Sema3A as analyte, 1:1 Langmuir fit
Description: A high surface density of anti-human Fab antibody (GE Healthcare) was immobilized over a GLM chip (BioRad) via direct amine coupling over 6 horizontal channels according to the BioRad manufacturer's manual.
The antibody of the invention (clone 1) and the Chiome antibodies were captured over the anti-human Fab antibody surface over 5 of 6 vertical channels with a minimum surface density for the kinetic binding assay. Human Sema3A was prepared in PBS-T-EDTA buffer (BioRad) at concentrations of 100, 50, 25, 12.5, 10, 6.25, 5, 2.5, 1.25, 0.625 and 0 nM. A PBS-T-EDTA buffer injection was used as a double reference for the kinetic data analysis. Each of the human Sema3A solutions and PBS-T-EDTA buffer were injected simultaneously over the 6 horizontal channels for 10 min at a flow rate of 40 μL/min followed by 2 hr dissociation phase. The surfaces were regenerated by an 18 sec injection of 10 mM pH 2.1 glycine HCl (GE Healthcare) at a flow rate of 100 μL/min followed by an injection of 60 sec PBS-T-EDTA at a flow rate of 25 μL/min.

[11] = target: Cynomolgus Sema3A (cynomolgus); assay: SPR (BioRad GLM chip), antibody captured on goat anti-human IgG, Sema3A as analyte, 1:1 Langmuir fit

Kd [1]: 0.029 nM
Kd (Rabbit Sema3A [2]): 0.042 nM
Kd (Mouse Sema3A [3]): 0.027 nM
Kd (Rat Sema3A [4]): 0.027 nM
Kd [5]: 0.0347 nM
Kd (Rabbit Sema3A [6]): 0.0401 nM
Kd (Mouse Sema3A [7]): 0.035 nM
Kd (Rat Sema3A [8]): 0.0235 nM
Kd [9]: 0.028 nM
Kd [10]: 0.032 nM
Kd [11]: 0.035 nM
B1: Antibody of the invention (clone I) (antibody, human IgG1, kappa, L234A L235A, V domains shown)
VH: EVQLVESGGGLVQPGGSLRLSCAASGFTFSSYYMSWVRQAPGKGLEWVSTIIKSGGYAYYPDSVKDRFTISRDNSKNTLYLQMSSLRAEDTAVYYCVRGGQGAMDYWGQGTTVTVSS
VL: EIVLTQSPATLSLSPGERATLSCRASQSIGDYLHWYQQKPGQAPRLLIKYASQSISGIPARFSGSGSGTDFTLTITSLEPEDFAVYYCQQGYSFPYTFGGGTKLEIKR
notes: also called clone 1; anti-Sema3A antibody of the invention
